Experimental data as given in publication PMC5283298.

Legend:
[1] = target: microtubules (polymer of alpha and beta tubulin); test: single-molecule TIRF microscopy on microtubules
[2] = target: HaloTag-KIF21B 1-657; test: single-molecule photobleaching step counting
[3] = target: HaloTag-KIF21B full-length (FL); test: single-molecule photobleaching step counting

Sequence of HaloTag-KIF21B 1-657 (domain or fragment) (O75037 1-657): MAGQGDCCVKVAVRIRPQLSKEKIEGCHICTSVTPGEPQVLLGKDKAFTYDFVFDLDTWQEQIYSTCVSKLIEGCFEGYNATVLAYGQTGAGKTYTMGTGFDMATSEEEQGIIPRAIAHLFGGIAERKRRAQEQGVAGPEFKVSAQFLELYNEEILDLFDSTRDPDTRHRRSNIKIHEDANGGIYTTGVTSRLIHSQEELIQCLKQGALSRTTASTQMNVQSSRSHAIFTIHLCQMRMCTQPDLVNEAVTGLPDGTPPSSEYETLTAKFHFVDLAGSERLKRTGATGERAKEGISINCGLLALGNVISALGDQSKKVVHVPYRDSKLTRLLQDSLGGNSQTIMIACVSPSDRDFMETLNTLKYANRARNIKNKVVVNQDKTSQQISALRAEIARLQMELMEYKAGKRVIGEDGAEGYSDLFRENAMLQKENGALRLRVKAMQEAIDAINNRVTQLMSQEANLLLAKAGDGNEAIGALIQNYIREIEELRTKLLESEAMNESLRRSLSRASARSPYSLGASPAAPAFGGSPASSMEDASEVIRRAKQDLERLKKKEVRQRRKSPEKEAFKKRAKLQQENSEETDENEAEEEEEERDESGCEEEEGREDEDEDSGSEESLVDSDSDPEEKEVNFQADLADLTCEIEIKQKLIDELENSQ
Sequence of HaloTag-KIF21B full-length (FL) (natural protein) (O75037 whole entry): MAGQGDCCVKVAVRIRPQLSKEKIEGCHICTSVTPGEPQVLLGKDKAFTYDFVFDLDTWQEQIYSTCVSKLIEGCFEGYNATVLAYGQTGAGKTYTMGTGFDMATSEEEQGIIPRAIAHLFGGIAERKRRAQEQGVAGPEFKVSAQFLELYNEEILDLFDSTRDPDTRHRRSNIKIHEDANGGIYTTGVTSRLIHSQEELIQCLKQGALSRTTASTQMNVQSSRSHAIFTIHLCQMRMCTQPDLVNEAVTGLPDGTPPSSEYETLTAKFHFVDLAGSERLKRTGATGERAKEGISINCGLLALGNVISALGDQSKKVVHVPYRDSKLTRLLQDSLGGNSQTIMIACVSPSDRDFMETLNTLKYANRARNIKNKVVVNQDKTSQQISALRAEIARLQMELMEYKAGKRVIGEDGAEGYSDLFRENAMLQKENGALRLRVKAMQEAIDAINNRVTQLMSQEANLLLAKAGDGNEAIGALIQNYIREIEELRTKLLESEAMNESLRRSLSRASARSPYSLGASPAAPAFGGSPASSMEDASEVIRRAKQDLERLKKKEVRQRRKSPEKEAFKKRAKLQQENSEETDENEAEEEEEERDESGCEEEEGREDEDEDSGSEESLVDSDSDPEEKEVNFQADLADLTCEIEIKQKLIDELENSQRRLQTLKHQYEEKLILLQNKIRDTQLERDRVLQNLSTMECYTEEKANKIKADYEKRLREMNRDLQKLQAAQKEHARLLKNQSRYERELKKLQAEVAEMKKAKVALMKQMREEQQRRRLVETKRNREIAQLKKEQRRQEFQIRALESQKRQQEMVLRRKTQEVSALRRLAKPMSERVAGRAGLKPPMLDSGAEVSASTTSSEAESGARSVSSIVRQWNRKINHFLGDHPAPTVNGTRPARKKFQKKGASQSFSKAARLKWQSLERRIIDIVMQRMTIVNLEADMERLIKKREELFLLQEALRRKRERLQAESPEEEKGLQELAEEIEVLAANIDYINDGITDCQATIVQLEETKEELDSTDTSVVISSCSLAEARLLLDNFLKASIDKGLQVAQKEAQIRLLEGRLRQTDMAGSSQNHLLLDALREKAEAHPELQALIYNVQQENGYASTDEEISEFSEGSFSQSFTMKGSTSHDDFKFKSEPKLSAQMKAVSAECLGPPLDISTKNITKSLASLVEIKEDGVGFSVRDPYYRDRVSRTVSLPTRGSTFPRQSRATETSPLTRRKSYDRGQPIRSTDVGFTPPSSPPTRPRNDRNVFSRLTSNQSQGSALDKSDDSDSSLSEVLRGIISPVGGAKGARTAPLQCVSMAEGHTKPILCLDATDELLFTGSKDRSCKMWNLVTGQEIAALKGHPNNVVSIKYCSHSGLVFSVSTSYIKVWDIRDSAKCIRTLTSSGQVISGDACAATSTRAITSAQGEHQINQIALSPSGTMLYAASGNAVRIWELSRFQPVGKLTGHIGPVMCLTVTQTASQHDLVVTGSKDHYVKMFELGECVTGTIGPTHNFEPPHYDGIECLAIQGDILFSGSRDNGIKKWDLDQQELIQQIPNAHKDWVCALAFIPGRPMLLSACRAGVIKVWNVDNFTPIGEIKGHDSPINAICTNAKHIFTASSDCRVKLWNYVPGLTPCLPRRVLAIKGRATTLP
Sequence of microtubules (polymer of alpha and beta tubulin) (P68363 whole entry, chain 1 of 2): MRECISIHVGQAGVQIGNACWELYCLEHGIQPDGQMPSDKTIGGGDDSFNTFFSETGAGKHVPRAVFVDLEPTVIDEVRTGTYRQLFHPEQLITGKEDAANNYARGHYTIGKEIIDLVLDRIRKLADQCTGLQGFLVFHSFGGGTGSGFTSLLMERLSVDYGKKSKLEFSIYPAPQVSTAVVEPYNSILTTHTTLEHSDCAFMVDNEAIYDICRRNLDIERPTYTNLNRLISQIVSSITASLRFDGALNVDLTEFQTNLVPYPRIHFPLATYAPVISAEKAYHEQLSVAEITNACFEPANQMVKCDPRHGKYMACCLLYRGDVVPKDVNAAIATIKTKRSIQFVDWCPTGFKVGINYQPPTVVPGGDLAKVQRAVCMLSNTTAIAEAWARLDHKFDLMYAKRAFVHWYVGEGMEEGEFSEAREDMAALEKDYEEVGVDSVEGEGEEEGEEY
Sequence of microtubules (polymer of alpha and beta tubulin) (A8K068 whole entry, chain 2 of 2, further chain): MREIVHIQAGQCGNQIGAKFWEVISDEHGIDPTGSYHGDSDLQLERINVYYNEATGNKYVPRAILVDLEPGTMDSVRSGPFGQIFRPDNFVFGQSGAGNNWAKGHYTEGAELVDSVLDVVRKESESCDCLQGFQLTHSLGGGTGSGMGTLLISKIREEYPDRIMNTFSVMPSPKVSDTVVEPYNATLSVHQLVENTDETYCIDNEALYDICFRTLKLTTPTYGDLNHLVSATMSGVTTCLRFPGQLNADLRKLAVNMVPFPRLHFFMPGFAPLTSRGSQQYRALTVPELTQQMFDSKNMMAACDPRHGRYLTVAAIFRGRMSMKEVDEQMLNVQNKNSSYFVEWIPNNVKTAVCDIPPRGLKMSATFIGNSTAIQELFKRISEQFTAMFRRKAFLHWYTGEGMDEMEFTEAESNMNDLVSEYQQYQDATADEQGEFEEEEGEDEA

Row | particles per μm MT (particles/μm MT) [1] | stoichiometry N [2] | stoichiometry N [3] | Substance
1 | 0.067 | 2 |  | HaloTag-KIF21B 1-657 (domain or fragment)
2 | 0.5 |  | 2 | HaloTag-KIF21B full-length (FL) (natural protein)
